Reference: patent publication US20250388665A1 (ADAFRE BIOSCIENCES, published 2025)

T1: murine TNFα (murine, UniProt P06804 80-235, limits assumed, biotinylated (sites not given))
T1 construct: Bought reagent; also called biotinylated murine TNFα
T1 sequence (looked up): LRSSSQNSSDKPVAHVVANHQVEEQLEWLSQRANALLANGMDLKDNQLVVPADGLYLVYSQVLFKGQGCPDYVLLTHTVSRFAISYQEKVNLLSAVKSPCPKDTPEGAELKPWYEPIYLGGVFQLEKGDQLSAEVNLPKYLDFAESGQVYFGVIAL


Key:
murine TNFα = biological target: T1, murine TNFα; assay: ELISA: Fab captured via anti-human Fd, biotinylated murine TNFα titrated (x axis), prolonged dissociation at pH 7.4, A450
Description: A 96-well Costar-3366 plate was coated with 50 μL/well of 2 μg/mL sheep anti-human Fd (Southern Biotech, Prod. #2046-01) in PBS for 1 hour at room temperature. The plate was washed four times with PBS containing 0.05% Tween 20 (PBS-T) and blocked with 100 μL/well of 1% BSA-PBS for 1 hour at room temperature. Block was removed and 50 μL/well of 0.5 ug/mL sample was added. Sample dilutions were performed with 1% BSA-PBS. The plate was washed four times with PBS containing 0.05% Tween 20 (PBS-T), then biotinylated murine (Acro biosystems) TNFα was serially diluted 3-fold starting at 30 nM in B-PBS and incubated for 1 h at 25° C. (50 μL/well). The plates were washed in 500 mL of PBS-T, pH 6.0 or PBS-T, pH 7.4 for 1 hour. PBS-T was removed from the plates every 10 minutes during this wash. The plates were then washed four times with PBS-T, and incubated with 50 μL/well of Neutravidin HRP (ThermoFisher Scientific, cat. #31030), diluted 2,000-fold in B-PBS for 1 h at 25° C. The plate was washed four times with PBS-T, then developed with 50 μL/well 1-Step Ultra TMB-ELISA (ThermoFisher Scientific, Prod. #34028). The reaction was terminated by the addition of 2 N H₂SO₄ and the A450 was determined before and after addition of H₂SO₄, respectively, using a Spectramax plate reader.

human TNFα [1] = biological target: T2, human TNFα (human, UniProt P01375 77-233, biotinylated in the Example 2 assay (sites not given)); assay: ELISA: Fab titrated on immobilized human TNFα, 2 h dissociation at pH 6.0 with 100 nM soluble TNFα, A450
T2 construct: also called biotinylated human TNFα; soluble TNFα
T2 sequence (P01375 77-233 limits assumed): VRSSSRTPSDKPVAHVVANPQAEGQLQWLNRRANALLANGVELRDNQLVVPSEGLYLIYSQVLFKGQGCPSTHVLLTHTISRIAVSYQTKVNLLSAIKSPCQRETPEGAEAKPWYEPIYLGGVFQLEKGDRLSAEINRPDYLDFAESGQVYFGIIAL
Description: (§1) A 96-well Costar-3366 plate was coated with 50 μL/well of 1 μg/mL human TNFα (Genscript cat. #Z01001) in PBS for one hour at room temperature. The plate was rinsed twice with PBS-T and blocked with 100 μL/well of 1% BSA in PBS (B-PBS) for 1 h at 25° C. Fab samples were serially diluted 3-fold starting at 40 nM in B-PBS and were incubated for 1 h at 25° C. (50 μL/well). The plate was washed four times with PBS-T and 50 µL/well of 100 nM human TNFα in 1% BSA was added for 2 h at 25° C. The plate was washed four times with PBS-T and 50 μL/well of anti-human kappa, HRP conjugate (Southern Biotech, Prod. #2060-05) diluted 5,000-fold in B-PBS was added for 1 h at 25° C. The plate was washed three times with PBS-T, then developed with 50 μL/well 1-Step Ultra TMB-ELISA (ThermoFisher Scientific, Prod. #34028). The reaction was terminated by the addition of 2 N H₂SO₄ and the A450 was determined before and after addition of H₂SO₄, respectively, using a Spectramax plate reader.
(§2) The ELISA method used to characterize these variants was described in Example 3.

human TNFα [2] = biological target: T2, human TNFα; assay: ELISA: Fab titrated on immobilized human TNFα, 2 h dissociation at pH 7.4 with 100 nM soluble TNFα, A450
Description: as §1, §2

human TNFα [3] = biological target: T2, human TNFα; assay: as above; remark: listed apart in the source
Description: as §1

human TNFα [4] = biological target: T2, human TNFα; assay: ELISA: Fab titrated on immobilized human TNFα, 2 h dissociation at pH 7.4 with 100 nM soluble TNFα, A450 [cont.) C]
Description: as §1, §2

binding result (murine TNFα)	EC50 (read off the curve) (human TNFα [1]) [pM]	EC50 (read off the curve) (human TNFα [2]) [pM]	Binder	other results
no binding (tested: log -7.5 M b-muTNF)			Ab4 Fab (Fab, V domains shown, Fab: VH/VL joined to human kappa constant domain and human G1 CH1) VH: EVQLVESGGGLVQPGGSLRLSCAASGYVFTDYGMNWVRQAPGKGLEWMGWINTYIGEPIYADSVKGRFTFSLDTSKSTAYLQMNSLRAEDTAVYYCARGYRSYAMDYWGQGTLVTVSS VL: DIQMTQSPSSLSASVGDRVTITCKASQNVGTNVAWYQQKPGKAPKALIYSASFLYSGVPYRFSGSGSGTDFTLTISSLQPEDFATYYCQQYNIYPLTFGQGTKVEIK	
	~700	~400	A1 VL2 (Fab, V domains shown, Fab: VH/VL joined to human kappa constant domain and human G1 CH1) VH: not shown VL: DIQMTQSPSSLSASVGDRVTITCRASQEIRNYLAWYQQKPGKAPKLLIYAASTLQSGVPSRFSGSGSGTDFTLTISSLQPEDVATYYCQHYHRAPYTFGQGTKVEIK	
	~900		A1 VL3 (Fab, V domains shown, Fab: VH/VL joined to human kappa constant domain and human G1 CH1) VH: not shown VL: DIQMTQSPSSLSASVGDRVTITCRASQEIRNYLAWYQQKPGKAPKLLIYAASTLQSGVPSRFSGSGSGTDFTLTISSLQPEDVATYYCQHYHRAPYHFGQGTKVEIK	
	~1000		A1 VL4 (Fab, V domains shown, Fab: VH/VL joined to human kappa constant domain and human G1 CH1) VH: not shown VL: DIQMTQSPSSLSASVGDRVTITCRASQEIRNYLAWYQQKPGKAPKLLIYAASTLQSGVPSRFSGSGSGTDFTLTISSLQPEDVATYYCHHYHRAPYTFGQGTKVEIK	
			A1 VH2 (Fab, V domains shown, Fab: VH/VL joined to human kappa constant domain and human G1 CH1) VH: EVQLVESGGGLVQPGRSLRLSCAASGFTFDQYAMHWVRQAPGKGLEWVSAITWNSGHIDYADSVEGRFTISRDNAKNSLYLQMNSLRAEDTAVYYCAKVSYLPTAHHLDYWGQGTLVTVSS VL: not shown	binding result (human TNFα [2]): binds
binds		~700	A1 VH3 (Fab, V domains shown, Fab: VH/VL joined to human kappa constant domain and human G1 CH1) VH: EVQLVESGGGLVQPGRSLRLSCAASGFTFDQYAMHWVRQAPGKGLEWVSAITWNSGHIDYADSVEGRFTISRDNAKNSLYLQMNSLRAEDTAVYYCAKVHYHPTASSLDYWGQGTLVTVSS VL: not shown	EC50 (read off the curve) (human TNFα [3]): ~2000 pM
binds			A1 VL7 (Fab, V domains shown, Fab: VH/VL joined to human kappa constant domain and human G1 CH1) VH: not shown VL: DIQMTQSPSSLSASVGDRVTITCRASQEIRNHLAWYQQKPGKAPKLLIYAASTLQSGVPSRFSGSGSGTDFTLTISSLQPEDVATYYCQRYNHAPYTFGQGTKVEIK	EC50 (read off the curve) (human TNFα [4]): ~1000 pM
no binding (tested: log -7.5 M b-muTNF)		~3000	AF-M2637 Fab (Fab, V domains shown, pH switch variant of Ab1; Fab: VH/VL joined to human kappa constant domain and human G1 CH1; also called control AF-M2637) VH: not shown VL: DIQMTQSPSSLSASVGDRVTITCRASQGIRNYLAWYQQKPGKAPKLLIYAASTLQSGVPSRFSGSGSGTDFTLTISSLQPEDVATYYCHHYHRAPYTFGQGTKVEIK	
